Data: US20240116985A1, “STAPLED PEPTIDES AND METHODS THEREOF” (priority 2020, published 2024)
Starred links: 1 amine or outer side, 2 acyl side, 3 side chain; linkers in the order of their positions; H or OH if unused. Positions of bridges follow the written chain, without caps; N, C: chain ends. Non-standard residues stand in square brackets, D forms with d. Primed or numbered codes have the meaning given here. No end group written: not given here. PyrS2″ = (S)-3-amino-1-((pent-4-en-1-yloxy)carbonyl)pyrrolidine-3-carboxylic acid (stapling residue), C=CCCCOC(=O)N1CC[C@@](N[*:1])(C(=O)[*:2])C1; B5(16) = 2-amino-2-(pent-4-en-1-yl)hept-6-enoic acid = 2,2-bis(4-pentenyl)glycine (stitching residue), C=CCCCC(CCCC=C)(N[*:1])C(=O)[*:2]; B5(4) = 2,2-bis(4-pentenyl)glycine = 2-amino-2-(pent-4-en-1-yl)hept-6-enoic acid (stitching residue), C=CCCCC(CCCC=C)(N[*:1])C(=O)[*:2]; B5(5) = 2,2-bis(4-pentenyl)glycine, 2-amino-2-(pent-4-en-1-yl)hept-6-enoic acid (stitching residue), C=CCCCC(CCCC=C)(N[*:1])C(=O)[*:2]; B5(12) = 2-amino-2-(pent-4-en-1-yl)hept-6-enoic acid (two olefin side chains), C=CCCCC(CCCC=C)(N[*:1])C(=O)[*:2]; Phe(3-COOH) = N[C@@H](Cc1cccc(C(=O)O)c1)C(=O)O; Phe(2-CF3) = N[C@@H](Cc1ccccc1C(F)(F)F)C(=O)O; Phe(2-Cl) = N[C@@H](Cc1ccccc1Cl)C(=O)O; Phe(2-Me) = Cc1ccccc1C[C@H](N)C(=O)O; Bta = N[C@@H](Cc1csc2ccccc12)C(=O)O; Lys(iPr) = CC(C)NCCCC[C@H](N)C(=O)O; αAllylPro = C=CC[C@@]1(C(=O)O)CCCN1; tBuAla = CC(C)(C)C[C@H](N)C(=O)O; 3Thi = N[C@@H](Cc1ccsc1)C(=O)O; Cha = N[C@@H](CC1CCCCC1)C(=O)O; Thr(ol) = C[C@@H](O)[C@H](N)CO; PyrS2(4) = not defined here

B1: I-1909 (peptide)
peptide: Ac-[αAllylPro]D[tBuAla][B5(12)]D[Phe(3-COOH)][Lys(iPr)]AFL[PyrS2(4)][3Thi][Bta]F-NH2
modifications: staple 1-4, 4-11; not fully specified; printed as Ac-PL3-Asp-Npg-B5-Asp-3COOHF-iPrLys-Ala-Phe-Leu-PyrS2-3Thi-BztA-Phe-NH2; reading uncertain
B2: I-1904 (peptide)
peptide: Ac-[αAllylPro]D[tBuAla][B5(12)]D[Phe(3-COOH)]AAFL[PyrS2(4)][Phe(2-Cl)][Bta]N-NH2
modifications: staple 1-4, 4-11; not fully specified; printed as Ac-PL3-Asp-Npg-B5-Asp-3COOHF-Ala-Ala-Phe-Leu-PyrS2-2C1F-BztA-Asn-NH2; reading uncertain
B3: I-1911 (peptide)
peptide: Ac-[αAllylPro]D[tBuAla][B5(12)]D[Phe(3-COOH)]KAFL[PyrS2(4)][3Thi][Bta]F-NH2
modifications: staple 1-4, 4-11; not fully specified; printed as Ac-PL3-Asp-Npg-B5-Asp-3COOHF-Lys-Ala-Phe-Leu-PyrS2-3Thi-BztA-Phe-NH2; reading uncertain
B4: I-1910 (peptide)
peptide: Ac-[αAllylPro]D[tBuAla][B5(12)]D[Phe(3-COOH)]HAFL[PyrS2(4)][3Thi][Bta]F-NH2
modifications: staple 1-4, 4-11; not fully specified; printed as Ac-PL3-Asp-Npg-B5-Asp-3COOHF-His-Ala-Phe-Leu-PyrS2-3Thi-BztA-Phe-NH2; reading uncertain

Each binder was assayed against B-cat-Halo (beta-catenin HaloTag NanoBRET construct expressed in HEK293 cells) (UniProt P35222) (assay: NanoBRET Abs IC50 in HEK293 cells; Bcat-Halo, competitor TCF4-Luc).
Chain of B-cat-Halo (beta-catenin HaloTag NanoBRET construct expressed in HEK293 cells) (P35222 whole entry): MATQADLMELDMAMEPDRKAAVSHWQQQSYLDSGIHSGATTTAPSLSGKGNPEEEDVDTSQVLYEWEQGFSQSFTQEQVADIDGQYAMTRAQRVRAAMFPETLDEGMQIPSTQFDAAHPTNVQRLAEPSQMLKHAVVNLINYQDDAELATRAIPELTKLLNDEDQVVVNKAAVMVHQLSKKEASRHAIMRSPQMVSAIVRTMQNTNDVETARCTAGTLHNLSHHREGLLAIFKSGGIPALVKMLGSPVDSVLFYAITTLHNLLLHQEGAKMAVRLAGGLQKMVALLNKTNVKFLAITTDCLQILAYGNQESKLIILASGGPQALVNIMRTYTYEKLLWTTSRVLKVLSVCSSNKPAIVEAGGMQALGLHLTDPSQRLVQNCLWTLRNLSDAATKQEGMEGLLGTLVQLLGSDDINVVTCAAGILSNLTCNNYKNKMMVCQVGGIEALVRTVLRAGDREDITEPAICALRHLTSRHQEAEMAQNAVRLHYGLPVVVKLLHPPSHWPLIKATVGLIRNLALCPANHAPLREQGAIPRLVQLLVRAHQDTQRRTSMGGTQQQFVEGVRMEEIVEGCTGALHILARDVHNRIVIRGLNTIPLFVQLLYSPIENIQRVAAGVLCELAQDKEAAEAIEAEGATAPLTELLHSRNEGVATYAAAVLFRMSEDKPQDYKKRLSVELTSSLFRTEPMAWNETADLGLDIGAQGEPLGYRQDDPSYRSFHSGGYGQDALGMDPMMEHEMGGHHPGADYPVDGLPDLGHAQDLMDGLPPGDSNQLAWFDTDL
Binder [αAllylPro]D[tBuAla][B5(4)]DDAAFF[PyrS2″][Phe(2-Me)][Bta]Q-NH2 (staple 1-4, 4-11) [I-1326] has an IC50 of 6200 nM.
[αAllylPro]D[tBuAla][B5(4)]D[Phe(3-COOH)]AAFF[PyrS2″][Phe(2-Cl)][Bta][Thr(ol)] (staple 1-4; staple 4-11 (inferred)) [I-1340] showed an IC50 of 6800 nM.
Work on [αAllylPro]D[tBuAla][B5(4)]D[Phe(3-COOH)]AAFF[PyrS2″][Phe(2-Cl)][Bta]S-NH2 (staple 1-4; staple 4-11 (inferred)) [I-1339] yielded an IC50 of 5200 nM.
In the case of [αAllylPro]D[tBuAla][B5(4)]D[Phe(3-COOH)]AAFF[PyrS2″][Phe(2-CF3)][Bta]Q-NH2 (staple 1-4; staple 4-11 (inferred)) [I-1341], the IC50 is reported as 3500 nM.
With [αAllylPro]D[tBuAla][B5(4)]D[Phe(3-COOH)]AAFF[PyrS2″][Phe(2-Cl)][Bta]Q-NH2 (staple 1-4; staple 4-11 (inferred)) [I-1338] the IC50 was 3600 nM.
[αAllylPro]D[tBuAla][B5(4)]D[Phe(3-COOH)]AAFF[PyrS2″][Phe(2-CF3)][Bta]S-NH2 (staple 1-4; staple 4-11 (inferred)) [I-1342] gave an IC50 of 7000 nM.

Each binder was assayed against Bcat-Halo (UniProt P35222) (assay: NanoBRET absolute IC50, HEK293 cells, Bcat-Halo/TCF4-Luc engagement).
Chain of Bcat-Halo (P35222 whole entry): as above
[αAllylPro]D[tBuAla][B5(4)]D[Phe(3-COOH)]AAFF[PyrS2″][Phe(2-Cl)][Bta][Thr(ol)] (staple 1-4; staple 4-11 (inferred)) [I-1340] gave an IC50 of 6800 nM.
For [αAllylPro]D[tBuAla][B5(4)]D[Phe(3-COOH)]AAFF[PyrS2″][Phe(2-Cl)][Bta]S-NH2 (staple 1-4; staple 4-11 (inferred)) [I-1339], the IC50 was 5200 nM.
For [αAllylPro]D[tBuAla][B5(4)]D[Phe(3-COOH)]AAFF[PyrS2″][Phe(2-CF3)][Bta]Q-NH2 (staple 1-4; staple 4-11 (inferred)) [I-1341], the IC50 was 3500 nM.
With [αAllylPro]D[tBuAla][B5(4)]D[Phe(3-COOH)]AAFF[PyrS2″][Phe(2-Cl)][Bta]Q-NH2 (staple 1-4; staple 4-11 (inferred)) [I-1338] the IC50 was 3600 nM.
Binder [αAllylPro]D[tBuAla][B5(4)]D[Phe(3-COOH)]AAFF[PyrS2″][Phe(2-CF3)][Bta]S-NH2 (staple 1-4; staple 4-11 (inferred)) [I-1342] has an IC50 of 7000 nM.

What follows are binders tested against full-length beta-Catenin (Uniprot ID P35222) (Homo sapiens (Human)) (UniProt P35222) (assay: FP competition, full-length beta-catenin, competitor probe 5FAM-TCF4 10-53).
Target sequence in this assay (P35222 2-781 limits assumed): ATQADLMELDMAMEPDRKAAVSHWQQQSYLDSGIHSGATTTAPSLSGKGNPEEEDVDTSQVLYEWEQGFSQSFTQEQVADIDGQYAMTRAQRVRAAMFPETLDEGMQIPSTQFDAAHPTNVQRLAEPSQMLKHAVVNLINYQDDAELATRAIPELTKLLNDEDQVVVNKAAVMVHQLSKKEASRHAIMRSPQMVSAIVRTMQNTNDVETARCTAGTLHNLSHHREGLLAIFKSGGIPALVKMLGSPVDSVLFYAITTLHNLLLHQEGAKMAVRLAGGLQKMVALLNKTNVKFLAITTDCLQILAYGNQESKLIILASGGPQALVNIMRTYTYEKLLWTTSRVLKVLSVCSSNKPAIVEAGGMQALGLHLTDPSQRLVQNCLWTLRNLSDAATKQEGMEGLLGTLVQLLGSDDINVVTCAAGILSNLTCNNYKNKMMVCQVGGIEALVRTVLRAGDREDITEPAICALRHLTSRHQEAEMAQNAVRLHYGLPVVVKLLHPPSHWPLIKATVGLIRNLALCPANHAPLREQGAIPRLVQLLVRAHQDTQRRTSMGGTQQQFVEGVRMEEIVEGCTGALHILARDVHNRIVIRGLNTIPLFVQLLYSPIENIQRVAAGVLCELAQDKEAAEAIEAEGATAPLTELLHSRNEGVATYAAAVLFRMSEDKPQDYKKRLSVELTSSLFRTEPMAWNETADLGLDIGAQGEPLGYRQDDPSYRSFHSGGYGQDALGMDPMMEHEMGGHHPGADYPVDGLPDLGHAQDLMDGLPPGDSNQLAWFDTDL
In the case of [αAllylPro]D[tBuAla][B5(4)]D[Phe(3-COOH)]AAFF[PyrS2″][Phe(2-Cl)][Bta][Thr(ol)] (staple 1-4; staple 4-11 (inferred)) [I-1340], the IC50 is reported as 159 nM.
In the case of [αAllylPro]D[tBuAla][B5(4)]D[Phe(3-COOH)]AAFF[PyrS2″][Phe(2-Cl)][Bta]S-NH2 (staple 1-4; staple 4-11 (inferred)) [I-1339], the IC50 is reported as 33 nM.
[αAllylPro]D[tBuAla][B5(4)]D[Phe(3-COOH)]AAFF[PyrS2″][Phe(2-CF3)][Bta]Q-NH2 (staple 1-4; staple 4-11 (inferred)) [I-1341] showed an IC50 of 17 nM.
Work on [αAllylPro]D[tBuAla][B5(4)]D[Phe(3-COOH)]AAFF[PyrS2″][Phe(2-Cl)][Bta]Q-NH2 (staple 1-4; staple 4-11 (inferred)) [I-1338] yielded an IC50 of 10 nM.
Binder [αAllylPro]D[tBuAla][B5(4)]D[Phe(3-COOH)]AAFF[PyrS2″][Phe(2-CF3)][Bta]S-NH2 (staple 1-4; staple 4-11 (inferred)) [I-1342] has an IC50 of 35 nM.

Each binder was assayed against full-length beta-Catenin (Uniprot ID P35222) (Homo sapiens (Human)) (UniProt P35222) (assay: fluorescence polarization competition; full-length beta-catenin, competitor 5FAM-TCF4(10-53) probe).
Target sequence in this assay (P35222 2-781 limits assumed): as above
In the case of [αAllylPro]D[tBuAla][B5(4)]DDAAFF[PyrS2″][Phe(2-Me)][Bta]Q-NH2 (staple 1-4, 4-11) [I-1326], the EC50 is reported as 12 nM.
For [αAllylPro]D[tBuAla][B5(4)]D[Phe(3-COOH)]AAFF[PyrS2″][Phe(2-Cl)][Bta][Thr(ol)] (staple 1-4; staple 4-11 (inferred)) [I-1340], the EC50 was 159 nM.
For [αAllylPro]D[tBuAla][B5(4)]D[Phe(3-COOH)]AAFF[PyrS2″][Phe(2-Cl)][Bta]S-NH2 (staple 1-4; staple 4-11 (inferred)) [I-1339], the EC50 was 33 nM.
With [αAllylPro]D[tBuAla][B5(4)]D[Phe(3-COOH)]AAFF[PyrS2″][Phe(2-CF3)][Bta]Q-NH2 (staple 1-4; staple 4-11 (inferred)) [I-1341] the EC50 was 17 nM.
In the case of [αAllylPro]D[tBuAla][B5(4)]D[Phe(3-COOH)]AAFF[PyrS2″][Phe(2-Cl)][Bta]Q-NH2 (staple 1-4; staple 4-11 (inferred)) [I-1338], the EC50 is reported as 10 nM.
[αAllylPro]D[tBuAla][B5(4)]D[Phe(3-COOH)]AAFF[PyrS2″][Phe(2-CF3)][Bta]S-NH2 (staple 1-4; staple 4-11 (inferred)) [I-1342] gave an EC50 of 35 nM.

These binders were tested against full-length beta-Catenin (Uniprot ID P35222) (Homo sapiens (Human)) (UniProt P35222) (assay: fluorescence polarization competition; competitor 5FAM-TCF4(10-53) probe on full-length beta-catenin).
Target sequence in this assay (P35222 whole entry, one chain of several): as the sequence (P35222 whole entry) above
With [αAllylPro]D[tBuAla][B5(4)]DDAAFF[PyrS2″][Phe(2-Me)][Bta]Q-NH2 (staple 1-4, 4-11) [I-1326] the IC50 was 12 nM.

Each binder was assayed against full-length beta-Catenin (Uniprot ID P35222) (Homo sapiens (Human)) (UniProt P35222) (assay: fluorescence polarization competition; full-length beta-catenin with 5FAM-TCF4(10-53) probe, peptide titrated).
Target sequence in this assay (P35222 whole entry, one chain of several): as the sequence (P35222 whole entry) above
For Ac-[αAllylPro]D[Cha][B5(5)]DDAAFN[PyrS2″][Phe(2-Cl)][Bta]S-NH2 (staple 1-4, 4-11) [I-1046], the IC50 was 5 nM.

These binders were tested against Bcat-Halo (UniProt P35222) (assay: NanoBRET Abs IC50, HEK293 cells transfected with Bcat-Halo and TCF4-Luc (competitor: TCF4-Luc); cellular assay).
Work on Ac-[αAllylPro]D[Cha][B5(5)]DDAAFN[PyrS2″][Phe(2-Cl)][Bta]S-NH2 (staple 1-4, 4-11) [I-1046] yielded an IC50 of 20500 nM.

These binders were tested against full-length beta-Catenin (Uniprot ID P35222) (Homo sapiens (Human)) (UniProt P35222) (assay: fluorescence polarization competition; 10 nM full-length beta-catenin + 10 nM 5FAM-TCF4 10-53 as competitor probe).
Target sequence in this assay (P35222 2-781 limits assumed): as the sequence (P35222 2-781 limits assumed) above
Ac-[αAllylPro]D[Cha][B5(5)]DDAAFN[PyrS2″][Phe(2-Cl)][Bta]S-NH2 (staple 1-4, 4-11) [I-1046] was tested, and the EC50 was 5 nM.

Each binder was assayed against full-length beta-Catenin (Uniprot ID P35222) (Homo sapiens (Human)) (UniProt P35222) (assay: fluorescence polarization competition; peptide titrated against 5FAM-TCF4(10-53) bound to full-length beta-catenin).
Target sequence in this assay (P35222 whole entry, one chain of several): as the sequence (P35222 whole entry) above
B1 showed an IC50 of 29 nM.
B2 was tested, and the IC50 was 15 nM.
B3 gave an IC50 of 38 nM.
Binder B4 has an IC50 of 17 nM.
